Six molecules from publication PMC10609481, “Substrate DNA Promoting Binding of Mycobacterium tuberculosis MtrA by Facilitating Dimerization and Interpretation of Affinity by Minor Groove Width” can be followed below.

First the molecules themselves.
T1: MtrA (Mycobacterium tuberculosis H37Rv, UniProt P9WGM7 1-228)
T1 sequence: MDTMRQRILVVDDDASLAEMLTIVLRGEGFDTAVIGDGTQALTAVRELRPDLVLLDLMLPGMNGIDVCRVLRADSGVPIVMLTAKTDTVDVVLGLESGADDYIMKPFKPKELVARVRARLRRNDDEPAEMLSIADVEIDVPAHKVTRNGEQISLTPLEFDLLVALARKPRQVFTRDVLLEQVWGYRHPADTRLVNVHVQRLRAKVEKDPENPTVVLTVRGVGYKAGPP

B1: Rv3859c G20A (dsDNA)
DNA 1: GTTACGTGATCGAATTGTGATCCAGG
DNA 2: CCTGGATCACAATTCGATCACGTAAC
B2: Rv3859c G20A T21G (dsDNA)
DNA 1: GTTACGTGATCGAATTGTGAGCCAGG
DNA 2: CCTGGCTCACAATTCGATCACGTAAC
B3: Rv3859c G20A T21A (dsDNA)
DNA 1: GTTACGTGATCGAATTGTGAACCAGG
DNA 2: CCTGGTTCACAATTCGATCACGTAAC
B4: Rv3859c G20C (dsDNA)
DNA 1: GTTACGTGATCGAATTGTGCTCCAGG
DNA 2: CCTGGAGCACAATTCGATCACGTAAC
B5: Rv3859c G20A T21C (dsDNA)
DNA 1: GTTACGTGATCGAATTGTGACCCAGG
DNA 2: CCTGGGTCACAATTCGATCACGTAAC
B6: Rv3859c G20T (dsDNA)
DNA 1: GTTACGTGATCGAATTGTGTTCCAGG
DNA 2: CCTGGAACACAATTCGATCACGTAAC

The data set deals with T1, MtrA. In words: BLI. The conditions noted are these: protein: recombinant; tags: His6 (pET28a, BamHI/XhoI; N-terminal, inferred from stop codon in reverse primer); chain copies: 2; blunt.
On to B1, for which the Kd worked out at 0.178 µM.
As to B2, the Kd was 15.7 µM.
For the molecule B3, the Kd is 19.5 µM.
Take B4: the Kd was 7120 µM.
For B5 the value was 0.124 µM; for B6, 4380 µM.

As usually defined, the Kd is the equilibrium constant for the complex coming apart.
